Reference: US20230039401A1 (ATYR PHARMA, published 2023)
Values belong to the binder of their own block, whether it stands above or below them.

Experiments:
[1] = target: T1, NRP2-Fc (R&D Systems #2215-N2) (human, UniProt O60462 23-864, limits assumed); experiment: SPR (column: Binding to NRP2 observed by SPR)
T1 construct: Bought reagent; also called human NRP2; Neuropilin 2; not shown: Fc of the bought fusion

[2] = target: T1, NRP2-Fc (R&D Systems #2215-N2); experiment: SPR, GARS Fc-WHEP immobilised, 20 nM NRP2 as analyte
[3] = target: T1, NRP2-Fc (R&D Systems #2215-N2); experiment: SPR, MARS Fc-WHEP immobilised, 20 nM NRP2 as analyte
[4] = target: T2, NRP2a-GFP fusion protein on HEK293T cells (human, UniProt O60462 23-931); experiment: immunofluorescence microscopy, competition on HEK293T cells overexpressing NRP2v2-GFP, GFP Bright gate; VEGF-C titrated, competitor 175 nM Fc-HRS(2-60)/anti-Fc-PE
T2 construct: Transiently transfected HEK293T cells, fixed before staining; also called NRP2v2-GFP; cell-expressed NRP2a; not shown: GFP and any linker of the Origene clone
Description: HEK293T cells previously transfected with NRP2v2-GFP were passed the night before staining to 96 well Greiner Clear flat bottomed Microplates pre-coated with collagen coating solution. Supernatants were removed and cells were washed 1 time with binding buffer. Cells were then fixed with 50 μL of 3.7% methanol-free formaldehyde for 20 minutes at room temperature. Cells were washed 2× with binding buffer and then blocked with 100 μL of blocking buffer for 1 hour at room temperature. The cells were then washed one time with binding buffer and then incubated with 50 μL of staining complex overnight at 4 degrees Celsius. […] The Hoechst stain was replaced with 1×PBS and subsequently read on an IN Cell Analyzer 2200. 20× images were acquired and analyzed using In Cell Analyzer 1000 Workstation software. Segmentation of the cell mask was achieved using the GFP channel, and the average PE signal intensity was determined within this mask above a threshold intensity of 5000 (termed GFP Bright cells).

[5] = target: T1, NRP2-Fc (R&D Systems #2215-N2); experiment: SPR, WARS WHEP immobilised, 20 nM NRP2 as analyte

binding result [2]: no binding (tested: 20 nM)
B2: GARS Fc-WHEP (Fc fusion, UniProt P41250 63-119, looked up)
chain: VLAPLRLAVRQQGDLVRKLKEDKAPQVDVDKAVAELKARKRVLEAKELALQPKDDIV
notes: domain: WHEP domain; also called Fc domain fused to the WHEP domain of GARS; not shown: Fc domain

binding result [3]: no binding (tested: 20 nM)
B4: MARS Fc-WHEP (Fc fusion, UniProt P56192 841-897, looked up)
chain: QIQALMDEVTKQGNIVRELKAQKADKNEVAAEVAKLLDLKKQLAVAEGKPPEAPKGK
notes: domain: WHEP domain; also called Fc domain fused to the WHEP domain of MARS; not shown: Fc domain

binding result [5]: no binding (tested: 20 nM)
B6: WARS WHEP (other, UniProt P23381 8-64, looked up)
chain: SLLELFNSIATQGELVRSLKAGNASKDEIDSAVKMLVSLKMSYKAAAGEDYKADCPP
notes: domain: WHEP domain; also called WHEP domain of WARS with a V5/His tag; not shown: V5/His tag

The remaining lines, values behind:

B1: VEGF-A145 (R&D Systems #7626-VE-CF) (ligand, human, UniProt P15692-6 27-171, looked up)
chain: APMAEGGGQNHHEVVKFMDVYQRSYCHPIETLVDIFQEYPDEIEYIFKPSCVPLMRCGGCCNDEGLECVPTEESNITMQIMRIKPHQGQHIGEMSFLQHNKCECRPKKDRARQEKKSVRGKGKGQKRKRKKSRYKSWSVCDKPRR
binding result [1]: no binding

B3: VEGF-A121 (Peprotech #100-20A) (ligand, human, UniProt P15692-9 27-147, looked up)
chain: APMAEGGGQNHHEVVKFMDVYQRSYCHPIETLVDIFQEYPDEIEYIFKPSCVPLMRCGGCCNDEGLECVPTEESNITMQIMRIKPHQGQHIGEMSFLQHNKCECRPKKDRARQEKCDKPRR
binding result [1]: no binding

B5: Recombinant Human VEGF-C Protein (R&D Systems cat 2179-VC-025/CF) (ligand, UniProt P49767 103-227, looked up)
chain: TEETIKFAAAHYNTEILKSIDNEWRKTQCMPREVCIDVGKEFGVATNTFFKPPCVSVYRCGGCCNSEGLQCMNTSTSYLSKTLFEITVPLSQGPKPVTISFANHTSCRCMSKLDVYRQVHSIIRR
notes: Reagent of the cell immunofluorescence assay; Its catalogue number differs from that of the SPR reagent
IC50 (read off the curve) [4]: ~2 nM
